Measured values from article doi:10.1101/2021.06.22.449466 (bioRxiv, 2021).
Where two headings read alike, the source gives them in different places.

Assays:
[1] = molecular target: T1, Human RPA (heterotrimeric RPA complex: RPA70, RPA32 and RPA14 subunits) (human, UniProt P27694;P15927;P35244); assay: BLI
[2] = molecular target: T1, Human RPA (heterotrimeric RPA complex: …); assay: BLI; remark: listed apart in the source

T1 sequence (P27694 whole entry, chain 1 of 3): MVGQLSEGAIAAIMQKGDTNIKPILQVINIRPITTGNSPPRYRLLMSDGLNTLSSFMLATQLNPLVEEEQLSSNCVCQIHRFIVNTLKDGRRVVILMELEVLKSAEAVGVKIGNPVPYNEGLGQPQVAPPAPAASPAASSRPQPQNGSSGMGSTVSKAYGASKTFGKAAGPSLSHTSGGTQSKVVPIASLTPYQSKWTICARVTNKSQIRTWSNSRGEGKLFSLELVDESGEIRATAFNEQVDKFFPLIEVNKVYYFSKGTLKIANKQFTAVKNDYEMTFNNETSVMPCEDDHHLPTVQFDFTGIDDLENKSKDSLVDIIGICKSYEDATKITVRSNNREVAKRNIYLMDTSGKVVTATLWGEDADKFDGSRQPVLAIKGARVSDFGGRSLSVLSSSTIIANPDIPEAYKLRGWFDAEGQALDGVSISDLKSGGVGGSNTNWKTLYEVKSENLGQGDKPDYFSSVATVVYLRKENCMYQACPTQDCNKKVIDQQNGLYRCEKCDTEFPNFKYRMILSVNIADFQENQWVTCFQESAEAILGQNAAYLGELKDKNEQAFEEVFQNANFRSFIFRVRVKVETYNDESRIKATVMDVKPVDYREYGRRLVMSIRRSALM
T1 sequence (P15927 whole entry, chain 2 of 3): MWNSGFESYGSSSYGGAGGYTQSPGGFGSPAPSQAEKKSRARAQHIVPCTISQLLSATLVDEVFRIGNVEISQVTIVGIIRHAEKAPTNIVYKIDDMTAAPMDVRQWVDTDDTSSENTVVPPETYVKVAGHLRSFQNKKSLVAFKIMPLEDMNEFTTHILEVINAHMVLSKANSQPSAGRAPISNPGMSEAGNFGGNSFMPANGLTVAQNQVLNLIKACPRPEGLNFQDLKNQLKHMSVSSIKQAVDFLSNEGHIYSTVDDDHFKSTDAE
T1 sequence (P35244 whole entry, chain 3 of 3): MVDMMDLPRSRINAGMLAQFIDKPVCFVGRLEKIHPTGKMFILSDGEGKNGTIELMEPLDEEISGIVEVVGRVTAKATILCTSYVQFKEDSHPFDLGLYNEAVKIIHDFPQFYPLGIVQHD

B1: Lamin-C (amino acid residues 1-152) (domain or fragment)
chain: METPSQRRATRSGAQASSTPLSPTRITRLQEKEDLQELNDRLAVYIDRVRSLETENAGLRLRITESEEVVSREVSGIKAAYEAELGDARKTLDSVAKERARLQLELSKVREEFKELKARNTKKEGDLIAAQARLKDLEALLNSKEAALSTAL
Q: With B1 as the binder, how does the Kd [1] read?
A: Its Kd is 35 µM.

Q: What about the Kd [2] of the same binder?
A: The Kd was 1.5 µM.
